{
  "source": "patent US20230295571A1",
  "about": "“COMPOSITIONS AND METHODS FOR STEM CELL CHONDROGENESIS” (Washington University, priority 2020, published 2023)",
  "molecules": {"B1": {"name": "WNT3A: WNT ligand (R&D Systems) added at 100 ng/ml (protein, UniProt P56704 19-352, looked up)", "Protein Wnt-3a": "SYPIWWSLAVGPQYSSLGSQPILCASIPGLVPKQLRFCRNYVEIMPSVAEGIKIGIQECQHQFRGRRWNCTTVHDSLAIFGPVLDKATRESAFVHAIASAGVAFAVTRSCAEGTAAICGCSSRHQGSPGKGWKWGGCSEDIEFGGMVSREFADARENRPDARSAMNRHNNEAGRQAIASHMHLKCKCHGLSGSCEVKTCWWSQPDFRAIGDFLKDKYDSASEMVVEKHRESRGWVETLRPRYTYFKVPTERDLVYYEASPNFCEPNPETGSFGTRDRTCNVSSHGIDGCDLLCCGRGHNARAERRREKCRCVFHWCCYVSCQECTRVYDVHTCK"}, "B2": {"name": "WNT7B: WNT ligand (R&D system) added at 100 ng/ml (protein, UniProt P56706 25-349, looked up)", "Protein Wnt-7b": "ALSSVVALGANIICNKIPGLAPRQRAICQSRPDAIIVIGEGAQMGINECQYQFRFGRWNCSALGEKTVFGQELRVGSREAAFTYAITAAGVAHAVTAACSQGNLSNCGCDREKQGYYNQAEGWKWGGCSADVRYGIDFSRRFVDAREIKKNARRLMNLHNNEAGRKVLEDRMQLECKCHGVSGSCTTKTCWTTLPKFREVGHLLKEKYNAAVQVEVVRASRLRQPTFLRIKQLRSYQKPMETDLVYIEKSPNYCEEDAATGSVGTQGRLCNRTSPGADGCDTMCCGRGYNTHQYTKVWQCNCKFHWCCFVKCNTCSERTEVFTCK"}},
  "key": {"[1]": {"target": "VEGFR2 (Homo sapiens, UniProt P35968)", "sequence (P35968 20-1356, species assumed)": "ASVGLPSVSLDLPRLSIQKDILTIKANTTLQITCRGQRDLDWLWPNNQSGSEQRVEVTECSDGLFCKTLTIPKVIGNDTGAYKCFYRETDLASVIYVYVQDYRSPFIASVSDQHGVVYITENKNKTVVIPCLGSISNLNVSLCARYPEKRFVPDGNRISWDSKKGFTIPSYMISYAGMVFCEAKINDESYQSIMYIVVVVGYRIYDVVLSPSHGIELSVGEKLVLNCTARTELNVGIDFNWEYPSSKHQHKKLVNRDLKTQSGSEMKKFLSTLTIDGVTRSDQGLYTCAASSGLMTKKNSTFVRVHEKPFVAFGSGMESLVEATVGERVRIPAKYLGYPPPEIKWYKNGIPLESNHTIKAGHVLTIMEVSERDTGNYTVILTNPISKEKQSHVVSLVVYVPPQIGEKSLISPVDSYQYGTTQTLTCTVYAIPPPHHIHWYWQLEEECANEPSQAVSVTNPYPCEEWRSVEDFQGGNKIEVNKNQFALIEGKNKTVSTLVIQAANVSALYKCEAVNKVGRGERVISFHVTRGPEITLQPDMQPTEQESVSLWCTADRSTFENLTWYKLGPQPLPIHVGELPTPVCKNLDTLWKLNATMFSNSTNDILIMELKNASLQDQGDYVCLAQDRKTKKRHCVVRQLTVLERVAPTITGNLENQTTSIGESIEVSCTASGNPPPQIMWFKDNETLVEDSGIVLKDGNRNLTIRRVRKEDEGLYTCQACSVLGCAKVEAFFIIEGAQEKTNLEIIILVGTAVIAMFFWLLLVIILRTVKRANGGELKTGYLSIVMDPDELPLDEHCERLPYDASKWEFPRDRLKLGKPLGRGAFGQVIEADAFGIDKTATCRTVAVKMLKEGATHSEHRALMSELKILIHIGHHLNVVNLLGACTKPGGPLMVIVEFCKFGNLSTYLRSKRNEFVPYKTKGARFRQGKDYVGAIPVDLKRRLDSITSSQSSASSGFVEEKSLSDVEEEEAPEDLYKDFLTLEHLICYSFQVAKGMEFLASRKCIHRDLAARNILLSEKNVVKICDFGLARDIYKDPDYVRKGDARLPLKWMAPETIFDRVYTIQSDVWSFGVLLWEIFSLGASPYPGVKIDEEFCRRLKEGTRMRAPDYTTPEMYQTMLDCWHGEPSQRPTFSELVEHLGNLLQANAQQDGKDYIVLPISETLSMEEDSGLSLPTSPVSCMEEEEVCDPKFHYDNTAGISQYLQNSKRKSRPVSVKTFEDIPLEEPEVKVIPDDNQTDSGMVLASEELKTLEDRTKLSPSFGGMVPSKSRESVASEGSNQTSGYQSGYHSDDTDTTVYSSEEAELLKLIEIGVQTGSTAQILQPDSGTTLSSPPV", "settings": "cell-free assays; cited from earlier work"}, "[2]": {"system": "hiPSC chondrogenic pellets", "assay": "Biochemical analysis of cartilaginous matrix production (GAG/DNA) in hiPSC chondrogenic pellets", "format": "cell-based, human", "settings": "100 ng/ml WNT ligand + TGF-β3 vs TGF-β3 only", "procedure": "Chondrogenic differentiation. Cells dissociated at the Cp stage were resuspended at 5×10^5 cells per mL in chondrogenic medium consisting of DMEM/F-12, 1% FBS, 1% ITS+, 55 μM β-mertcaptoethanol, 100 nM dexamethasone (DEX; Sigma-Aldrich, #D4902), 1% NEAA (Gibco, #11140050), 1% P/S, 10 ng ml^−1 human transforming growth factor-beta 3 (TGF-β3; R&D Systems, #243-B3-010), 50 μg ml^−1 L-ascorbic acid 2-phosphate (ascorbate; Sigma-Aldrich, #A8960), and 40 μg ml^−1 L-Proline (proline; Sigma-Aldrich, #P5607). Cells were then centrifuged for 5 min at 300×g to form a pellet. Chondrogenic pellets were cultured at 37° C. for up to the timepoints required for various experiments.\nWNT-C59 and ML329 treatment for WNT and MITF inhibition. For WNT-C59 treatment for WNT inhibition during chondrogenesis, pellets were treated with either 10 ng ml^−1 TGF-β3 (control group) or a combination of 10 ng ml^−1 TGF-β3 and 1 μM WNT-C59 in a chondrogenic medium from d0 to d42 as appropriate. […]\nBiochemical analysis of cartilaginous matrix production. […] GAG content, as calculated based on the standard curve, was normalized to double-stranded DNA content to obtain the GAG/DNA ratio."}, "[3]": {"system": "CD146/CD166+ cells at the Cp stage", "assay": "FACS for progenitors at the Cp stage", "format": "cell-based, human", "settings": "with BMP4, 1 μM WNT-C59 or 100 ng/ml WNT3A", "procedure": "(§1) WNT ligands treatment during chondrogenesis. For WNT ligands treatment during chondrogenesis, pellets were treated with either 10 ng ml^−1 TGF-β3 (control group) or a combination of 10 ng ml^−1 TGF-β3 and 100 ng ml^−1 individual WNT ligand (WNT2B, WNT3A, WNT4, WNT5B, or WNT7B, all from R&D system) in chondrogenic medium from d0 to d42 as appropriate. For WNT ligands treatment during the Cp stage, cells were supplemented with either 20 ng ml^−1 BMP4 (R&D Systems, #314-BP-010) alone (control group), a combination of 20 ng ml^−1 BMP4 and 1 μM WNT-059, or a combination of 20 ng ml^−1 BMP4 and 100 ng ml^−1 WNT3A (R&D Systems, #5036-WN-010) in mesodermal differentiation medium from d7 to d12.\nFACS for progenitors. […] Data were analyzed using FlowJo software (version 10.5.3)."}, "[4]": {"system": "hiPSC chondrogenic pellets", "assay": "RT-qPCR of pellets treated with WNT ligands", "format": "cell-based, human", "procedure": "as §1\nRT-qPCR. RNA of the pellets was isolated using the Total RNA Purification Kit according to the manufacture's protocol (Norgen Biotek, #37500). Reverse transcription of the RNA was performed using SuperScript VILO Master Mix (Thermo Fisher, #11755050). Fast SYBR Green Master Mix (Thermo Fisher, #4385614) was used for reverse transcription-quantitative polymerase chain reaction (RT-qPCR) according to the manufacturer's instructions on the QuantStudio 3 (Thermo Fisher). Gene expression was analyzed using the ΔΔCT method relative to undifferentiated hiPSCs with the reference gene TATA-box-binding protein (TBP)."}, "[5]": {"system": "hiPSC chondrogenic pellets", "assay": "Immunohistochemistry of collagens in pellets", "format": "cell-based, human", "settings": "pellet culture", "procedure": "as §1\nImmunohistochemistry. Histologic sections (8 μm thick) of the pellets were rinsed with xylenes three times and rehydrated before labeling. Antigen retrieval was performed with 0.02% proteinase K for 3 min at 37° C. for COL2A1 and COL6A1 and with pepsin for 5 min at room temperature for COL1A1 and COL10A1 followed by peroxidase quench then serum blocking for 30 min at room temperature. […]"}},
  "data": [
    {"molecule": "CCN(CC)CCCCNc1ncc2cc(-c3cc(OC)cc(OC)c3)c(NC(=O)NC(C)(C)C)nc2n1", "note": "[PD173074]", "values": [
      {"measurement": "IC50", "setting": "[1]", "value": "100 to 200", "unit": "nM"}
    ]},
    {"molecule": "B1", "values": [
      {"measurement": "GAG/DNA ratio", "setting": "[2]", "value": "significantly decreased"},
      {"measurement": "percentage of CD146/CD166+ cells", "setting": "[3]", "value": "increased"},
      {"measurement": "COL2A1, COL1A1, and COL10A1 expression", "setting": "[4]; 100 ng/ml WNT ligand + TGF-β3 vs TGF-β3 pellets", "value": "increased"},
      {"measurement": "COL1A1 and COL10A1 staining/production", "setting": "[5]", "value": "higher intensity"}
    ]},
    {"molecule": "B2", "values": [
      {"measurement": "chondrogenic markers (SOX9, ACAN, COL2A1) and osteogenic marker (COL1A1)", "setting": "[4]; 100 ng/ml WNT ligand + TGF-β3 vs TGF-β3 only", "value": "significantly decreased"},
      {"measurement": "expression of MITF", "setting": "[4]; 100 ng/ml WNT ligand, relative to TGF-β3 pellets", "value": "significantly lower"}
    ]}
  ]
}
